For 19 molecules, normalised SPOT signal, Boehringer light units (BLU); mean over the file's lines of this peptide results are on record in publication PMC314469, “Protein Interaction Networks by Proteome Peptide Scanning” (PLoS Biology, 2004).

T1: Boi1 SH3 (BOI1_YEAST), P38041
T1 chain: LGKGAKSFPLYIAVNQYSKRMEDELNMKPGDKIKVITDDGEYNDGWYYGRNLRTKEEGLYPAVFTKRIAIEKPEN

T2: Boi2 SH3 (BOI2_YEAST), P39969
T2 chain: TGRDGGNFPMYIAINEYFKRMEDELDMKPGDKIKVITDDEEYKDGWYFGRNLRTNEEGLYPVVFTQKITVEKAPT

T3: Rvs167 SH3 (RV167_YEAST), P39743
T3 chain: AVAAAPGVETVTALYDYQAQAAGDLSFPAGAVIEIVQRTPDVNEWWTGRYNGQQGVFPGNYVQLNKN

T4: Yfr024 SH3 (LSB3_YEAST), P43603
T4 chain: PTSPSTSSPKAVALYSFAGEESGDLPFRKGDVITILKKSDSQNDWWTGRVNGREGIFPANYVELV

T5: Yhr016c SH3 (YSC84_YEAST), P32793
T5 chain: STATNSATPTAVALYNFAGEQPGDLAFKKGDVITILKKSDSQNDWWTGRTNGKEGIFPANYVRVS

One assay has as its target T1, Boi1 SH3 (BOI1_YEAST), P38041. The assay is described as follows: SPOT array.
Consider RGIPARPSKDDVMK [YPL073C 83-96], for which the normalised SPOT signal, Boehringer light units (BLU); mean over the file's lines of this peptide is 55.
Turning to RLIPTSPQKTNINT [YGR146C 14-27], the normalised SPOT signal, Boehringer light units (BLU); mean over the file's lines of this peptide is 52.5.
The same measure, in the same setting: under RIPPTVPSKIIDVV [YGR198W 7-20] stands 43.1; under RPTPRKPSRMATDH [YER118C 8-21], 80.2.
Take RPSPWLPSKPNSYH [YDR151C 80-93]: the normalised SPOT signal, Boehringer light units (BLU); mean over the file's lines of this peptide stood at 102.
The same measure, in the same setting: under RHRPQKPVRTVIYT [YOL164W 148-161] stands 101.
Same read-out and setting: then RMIPELPPKRIGSQ [YMR004W 190-203], with 366; and RPPPLTPEKNLYLT [YER032W 258-271], with 64.5; and RLLPSWPKRGFSLL [YIL047C 210-223], with 69.4.
Still for that read-out and setting: under RGPPPLPPRANVQP [YLR144C 22-35] stands 3000; under RGTPANPGRVATLI [YER163C 47-60], 147.
In turn, RNEPVKPFRNIDLK [YHR037W 29-42] showed a normalised SPOT signal, Boehringer light units (BLU); mean over the file's lines of this peptide of 146.
The same measure, in the same setting: under RFDPKSPTKRSIAI [YMR129W 524-537] stands 129; under RKRPAPPKKKAPST [YFR013W 82-95], 192; under RPLPQLPNRNNRPV [YOR181W 311-324], 6170.
As to RNEPVIPTKPSSSQ [YNL139C 1279-1292], the normalised SPOT signal, Boehringer light units (BLU); mean over the file's lines of this peptide worked out at 61.2.
On the same count and under the same terms, under RFNPAIPLRIYLKT [YLR073C 15-28] stands 66.6.
Same read-out and setting: then RIVPAIPKKATVDE [YNL064C 356-369], with 92.7; and RPNPTQPRKPLDSK [YDR359C 776-789], with 210.

The target in a further assay is T2, Boi2 SH3 (BOI2_YEAST), P39969. As to the kind of experiment: SPOT array.
RGIPARPSKDDVMK [YPL073C 83-96] returned a normalised SPOT signal, Boehringer light units (BLU); mean over the file's lines of this peptide of 14.7.
On the same count and under the same terms, then RLIPTSPQKTNINT [YGR146C 14-27], with 30.1; and RIPPTVPSKIIDVV [YGR198W 7-20], with 22.2; and RPTPRKPSRMATDH [YER118C 8-21], with 74.7.
The same measure, in the same setting: then RPSPWLPSKPNSYH [YDR151C 80-93], with 37.2.
In turn, RHRPQKPVRTVIYT [YOL164W 148-161] yielded a normalised SPOT signal, Boehringer light units (BLU); mean over the file's lines of this peptide of 62.7.
The same measure, in the same setting: then RMIPELPPKRIGSQ [YMR004W 190-203], with 201; and RPPPLTPEKNLYLT [YER032W 258-271], with 75.9.
Still for that read-out and setting: under RLLPSWPKRGFSLL [YIL047C 210-223] stands 251.
Same read-out and setting: under RGPPPLPPRANVQP [YLR144C 22-35] stands 14.3.
RGTPANPGRVATLI [YER163C 47-60]: the normalised SPOT signal, Boehringer light units (BLU); mean over the file's lines of this peptide was 0.
As to RNEPVKPFRNIDLK [YHR037W 29-42], the normalised SPOT signal, Boehringer light units (BLU); mean over the file's lines of this peptide stood at 47.3.
The same measure, in the same setting: under RFDPKSPTKRSIAI [YMR129W 524-537] stands 62.
On the same count and under the same terms, under RKRPAPPKKKAPST [YFR013W 82-95] stands 39.9; under RPLPQLPNRNNRPV [YOR181W 311-324], 33.8; under RNEPVIPTKPSSSQ [YNL139C 1279-1292], 17.
For the molecule RFNPAIPLRIYLKT [YLR073C 15-28], the normalised SPOT signal, Boehringer light units (BLU); mean over the file's lines of this peptide was 38.4.
Still for that read-out and setting: under RIVPAIPKKATVDE [YNL064C 356-369] stands 27.5; under RPNPTQPRKPLDSK [YDR359C 776-789], 61.7.

For another assay, the target named is T3, Rvs167 SH3 (RV167_YEAST), P39743. As to the kind of experiment: SPOT array.
As for RGIPARPSKDDVMK [YPL073C 83-96], the normalised SPOT signal, Boehringer light units (BLU); mean over the file's lines of this peptide was 1080.
In turn, RLIPTSPQKTNINT [YGR146C 14-27] displayed a normalised SPOT signal, Boehringer light units (BLU); mean over the file's lines of this peptide of 73.9.
Same read-out and setting: under RIPPTVPSKIIDVV [YGR198W 7-20] stands 44.9.
The same measure, in the same setting: then RPTPRKPSRMATDH [YER118C 8-21], with 2100; and RPSPWLPSKPNSYH [YDR151C 80-93], with 140.
Same read-out and setting: then RHRPQKPVRTVIYT [YOL164W 148-161], with 48.3.
For RMIPELPPKRIGSQ [YMR004W 190-203], the normalised SPOT signal, Boehringer light units (BLU); mean over the file's lines of this peptide was determined as 4880.
Still for that read-out and setting: then RPPPLTPEKNLYLT [YER032W 258-271], with 50.7; and RLLPSWPKRGFSLL [YIL047C 210-223], with 719.
As to RGPPPLPPRANVQP [YLR144C 22-35], the normalised SPOT signal, Boehringer light units (BLU); mean over the file's lines of this peptide came out at 18300.
On the same count and under the same terms, under RGTPANPGRVATLI [YER163C 47-60] stands 48.8; under RNEPVKPFRNIDLK [YHR037W 29-42], 39; under RFDPKSPTKRSIAI [YMR129W 524-537], 40.
Still for that read-out and setting: then RKRPAPPKKKAPST [YFR013W 82-95], with 59.3; and RPLPQLPNRNNRPV [YOR181W 311-324], with 25200; and RNEPVIPTKPSSSQ [YNL139C 1279-1292], with 4.9.
Turning to RFNPAIPLRIYLKT [YLR073C 15-28], the normalised SPOT signal, Boehringer light units (BLU); mean over the file's lines of this peptide was found to be 116.
Still for that read-out and setting: under RIVPAIPKKATVDE [YNL064C 356-369] stands 10900; under RPNPTQPRKPLDSK [YDR359C 776-789], 162.

A further assay deals with T4, Yfr024 SH3 (LSB3_YEAST), P43603. The assay is described as follows: SPOT array.
RGIPARPSKDDVMK [YPL073C 83-96]: the normalised SPOT signal, Boehringer light units (BLU); mean over the file's lines of this peptide was 7220.
On the same count and under the same terms, then RLIPTSPQKTNINT [YGR146C 14-27], with 547; and RIPPTVPSKIIDVV [YGR198W 7-20], with 618.
Same read-out and setting: then RPTPRKPSRMATDH [YER118C 8-21], with 16500.
Still for that read-out and setting: then RPSPWLPSKPNSYH [YDR151C 80-93], with 6260; and RHRPQKPVRTVIYT [YOL164W 148-161], with 3300; and RMIPELPPKRIGSQ [YMR004W 190-203], with 34800.
In turn, RPPPLTPEKNLYLT [YER032W 258-271] yielded a normalised SPOT signal, Boehringer light units (BLU); mean over the file's lines of this peptide of 381.
Still for that read-out and setting: then RLLPSWPKRGFSLL [YIL047C 210-223], with 10700; and RGPPPLPPRANVQP [YLR144C 22-35], with 25900.
With RGTPANPGRVATLI [YER163C 47-60], the normalised SPOT signal, Boehringer light units (BLU); mean over the file's lines of this peptide was 146.
The same measure, in the same setting: under RNEPVKPFRNIDLK [YHR037W 29-42] stands 6040; under RFDPKSPTKRSIAI [YMR129W 524-537], 321.
The same measure, in the same setting: then RKRPAPPKKKAPST [YFR013W 82-95], with 840.
The same measure, in the same setting: then RPLPQLPNRNNRPV [YOR181W 311-324], with 19600; and RNEPVIPTKPSSSQ [YNL139C 1279-1292], with 511.
Molecule RFNPAIPLRIYLKT [YLR073C 15-28] gave a normalised SPOT signal, Boehringer light units (BLU); mean over the file's lines of this peptide of 3040.
The same measure, in the same setting: then RIVPAIPKKATVDE [YNL064C 356-369], with 13100.
The same measure, in the same setting: then RPNPTQPRKPLDSK [YDR359C 776-789], with 271.

The target in the next assay is T5, Yhr016c SH3 (YSC84_YEAST), P32793. The assay is described as follows: SPOT array.
RGIPARPSKDDVMK [YPL073C 83-96] had a normalised SPOT signal, Boehringer light units (BLU); mean over the file's lines of this peptide of 880.
On the same count and under the same terms, then RLIPTSPQKTNINT [YGR146C 14-27], with 197; and RIPPTVPSKIIDVV [YGR198W 7-20], with 158.
RPTPRKPSRMATDH [YER118C 8-21] yielded a normalised SPOT signal, Boehringer light units (BLU); mean over the file's lines of this peptide of 2650.
The same measure, in the same setting: under RPSPWLPSKPNSYH [YDR151C 80-93] stands 578; under RHRPQKPVRTVIYT [YOL164W 148-161], 90.2; under RMIPELPPKRIGSQ [YMR004W 190-203], 19200.
Same read-out and setting: then RPPPLTPEKNLYLT [YER032W 258-271], with 0.
With RLLPSWPKRGFSLL [YIL047C 210-223], the normalised SPOT signal, Boehringer light units (BLU); mean over the file's lines of this peptide came out at 1130.
The same measure, in the same setting: then RGPPPLPPRANVQP [YLR144C 22-35], with 33400.
Same read-out and setting: then RGTPANPGRVATLI [YER163C 47-60], with 199; and RNEPVKPFRNIDLK [YHR037W 29-42], with 838.
The same measure, in the same setting: then RFDPKSPTKRSIAI [YMR129W 524-537], with 71.9; and RKRPAPPKKKAPST [YFR013W 82-95], with 45.5; and RPLPQLPNRNNRPV [YOR181W 311-324], with 9140.
RNEPVIPTKPSSSQ [YNL139C 1279-1292] came in with a normalised SPOT signal, Boehringer light units (BLU); mean over the file's lines of this peptide of 115.
The same measure, in the same setting: under RFNPAIPLRIYLKT [YLR073C 15-28] stands 846; under RIVPAIPKKATVDE [YNL064C 356-369], 3320; under RPNPTQPRKPLDSK [YDR359C 776-789], 104.
